From patent US20250333523A1 (Alector, published 2025)
Where a chain is given by its changes, count along the chain named.

Columns and labels:
[1] = target: T1, Avi/His-HuIL18BPa (recombinant human IL-18BP isoform A with Avi and poly-His tags) (human, biotinylated with BirA on the Avi tag in some assays); test: blocking ELISA, competitor human IL-18
T1 construct: also called human IL-18BP-Avi-His
T1 chain: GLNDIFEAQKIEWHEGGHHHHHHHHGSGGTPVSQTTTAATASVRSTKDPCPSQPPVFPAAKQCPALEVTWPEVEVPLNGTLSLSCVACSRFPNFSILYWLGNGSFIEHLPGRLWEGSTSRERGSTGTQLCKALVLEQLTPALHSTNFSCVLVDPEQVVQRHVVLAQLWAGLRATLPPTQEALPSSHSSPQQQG

[2] = target: T1, Avi/His-HuIL18BPa (recombinant human …); test: cell-based or functional assay
[3] = target: T2, Avi/HisMsIL18BPd (recombinant mouse IL-18BP with Avi and poly-His tags) (mouse, biotinylated with BirA on the Avi tag in some assays); test: cell-based or functional assay
T2 chain: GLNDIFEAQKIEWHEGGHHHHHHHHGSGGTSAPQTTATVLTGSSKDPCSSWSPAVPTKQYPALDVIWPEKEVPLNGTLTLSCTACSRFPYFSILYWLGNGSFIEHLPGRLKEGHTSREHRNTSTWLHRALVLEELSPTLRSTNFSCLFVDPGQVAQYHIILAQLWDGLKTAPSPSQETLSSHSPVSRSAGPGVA

[4] = target: T3, His/Avi-CynoIL18BP (recombinant cynomolgus IL-18BP with His and Avi tags) (cynomolgus monkey); test: blocking ELISA, competitor rhesus IL-18
T3 construct: also called cynomolgus IL-18BP-Avi-His
T3 chain: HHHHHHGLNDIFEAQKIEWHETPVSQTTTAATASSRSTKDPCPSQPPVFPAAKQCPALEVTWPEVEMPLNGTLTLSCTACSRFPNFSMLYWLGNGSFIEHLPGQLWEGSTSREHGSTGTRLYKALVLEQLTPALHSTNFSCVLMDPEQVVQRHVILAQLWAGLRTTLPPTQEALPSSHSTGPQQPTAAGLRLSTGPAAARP

[5] = target: T3, His/Avi-CynoIL18BP (recombinant …); test: ELISA, coated IL-18BP
[6] = target: T1, Avi/His-HuIL18BPa (recombinant human …); test: ELISA, coated IL-18BP
[7] = target: T2, Avi/HisMsIL18BPd (recombinant mouse …); test: ELISA, coated IL-18BP
[8] = target: T3, His/Avi-CynoIL18BP (recombinant …); test: cell-based or functional assay
[9] = target: T3, His/Avi-CynoIL18BP (recombinant …); test: SPR Carterra LSA, IgG immobilized
[10] = target: T4, mouse IL-18BPd-human IgG Fc (R&D Systems, Cat. #122-BP-100) (mouse; human, UniProt Q9Z0M9 29-193); test: blocking ELISA, competitor mouse IL-18
T4 construct: Bought; also called mouse IL-18BPd-Fc Chimera
T4 sequence (looked up): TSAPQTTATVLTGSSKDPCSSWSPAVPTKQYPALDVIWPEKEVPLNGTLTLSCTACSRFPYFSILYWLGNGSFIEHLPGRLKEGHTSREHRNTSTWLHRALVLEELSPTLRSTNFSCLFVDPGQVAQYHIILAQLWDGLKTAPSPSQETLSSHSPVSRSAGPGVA

[11] = target: T1, Avi/His-HuIL18BPa (recombinant human …); test: SPR Carterra LSA, IgG immobilized

B1: anti-IL18BP antibody BP-01 (antibody, human IgG1, V domains shown)
VH: QVQLQQSGPEVVRPGVSVKISCKGSGYTFTDFAMYWVKQSHAKSLEWIGVISTDNGDTSYNQKFKGKATMTVDKSSSTAYMELDRLTSEDSAIYYCARSRGPFDYWGQGTALTVSS
VL: DIVMTQSHKFKSTSVGDRVNITCKASQDVGTAVAWYQQKPGQSPKLLIYWASTRHIGVPDRFTGSGSGTDFTLTIRNVQSEDLADYFCQRYSSYPWTFGGGTKLEIK
blocking ELISA signal normalized to isotype control (=1) [1]: 0.076 ratio to isotype control
EC50 of IFNγ release, human PBMC [2]: 0.75 nM
Fold change of IFNγ at 10 µg/ml vs baseline, human PBMC [2]: 14.9 fold
EC50 of IFNγ release, mouse splenocytes [3]: 8.36 nM
Fold change of IFNγ at 10 µg/ml vs baseline, mouse splenocytes [3]: 1.65 fold
blocking ELISA signal normalized to isotype control (=1) [4]: 0.795 ratio to isotype control
ELISA binding ratio (fold-change over background) [5]: 47.4 fold over background
ELISA binding ratio (fold-change over background) [6]: 40.7 fold over background
ELISA binding ratio (fold-change over background) [7]: 36.7 fold over background
% of Max Gamma, human NK cells [8]: 52.2%
EC50 of IFNγ release, human NK cells [8]: 12.5 nM
Kd [9]: 12.1 nM
blocking ELISA signal normalized to isotype control (=1) [10]: 0.316 ratio to isotype control

B2: anti-IL18BP antibody BP-09 (antibody, human IgG1, V domains shown)
VH: QVQLQQSGAELVRPGASVTLSCKASGYRFTDYAMHWVKQTPVHGLQWIGIIDPETGDTAFNQKFKGKATLTADKSSSTAYMELSSLTSEDSAVYYCTRPRGAMDYWGQGTSVTVSS
VL: B1 VL with K11M, V15G, N20S, Q42I, I56T, T74A, R76S, R90Q, Y94H, W96Y
EC50 of IFNγ release, human PBMC [2]: 1.41 nM
Fold change of IFNγ at 10 µg/ml vs baseline, human PBMC [2]: 15.4 fold
EC50 of IFNγ release, mouse splenocytes [3]: 426 nM
Fold change of IFNγ at 10 µg/ml vs baseline, mouse splenocytes [3]: 2.88 fold
blocking ELISA signal normalized to isotype control (=1) [4]: 0.315 ratio to isotype control
ELISA binding ratio (fold-change over background) [5]: 44.9 fold over background
ELISA binding ratio (fold-change over background) [6]: 44.4 fold over background
ELISA binding ratio (fold-change over background) [7]: 32.7 fold over background
% of Max Gamma, human NK cells [8]: 46.6%
EC50 of IFNγ release, human NK cells [8]: 51.7 nM
Kd [9]: 1.4 nM
Kd [11]: 2.01 nM

B3: anti-IL18BP antibody BP-07 (antibody, human IgG1, V domains shown)
VH: EVQLQQSGPELVKPGASVKISCRASGFTITDYNMDWVRQSHGKSLEWIGNINLNNGGSIYNQKFKGKATLTIDKSSSTAYMELRSLTSEDTAVYYCARSDTTVVASRYYAMDYWGQGTSVTVSS
VL: DIVLTQSPASLAMSLGKRATISCRASESVSIIGTNLIHWYQQKPGQPPKLLIYHASNLETGVPVRFSGSGSRTDFTLTIDPVEEDDVAIYYCLQSRKIPPTFGGGTKLEIK
blocking ELISA signal normalized to isotype control (=1) [1]: 0.147 ratio to isotype control
EC50 of IFNγ release, human PBMC [2]: 1.66 nM
Fold change of IFNγ at 10 µg/ml vs baseline, human PBMC [2]: 16.6 fold
EC50 of IFNγ release, mouse splenocytes [3]: 8.16 nM
Fold change of IFNγ at 10 µg/ml vs baseline, mouse splenocytes [3]: 2.78 fold
blocking ELISA signal normalized to isotype control (=1) [4]: 0.999 ratio to isotype control
ELISA binding ratio (fold-change over background) [5]: 31.1 fold over background
ELISA binding ratio (fold-change over background) [6]: 38.5 fold over background
ELISA binding ratio (fold-change over background) [7]: 39.3 fold over background
Kd [11]: 2.7 nM
blocking ELISA signal normalized to isotype control (=1) [10]: 0.156 ratio to isotype control

B4: anti-IL18BP antibody BP-14 (antibody, human IgG1, V domains shown)
VH: QVQLVQSGAEVKKPGASVKVSCKASGYTFTGYYMHWVRQAPGQGLEWMGIINPRGGSTSHAQKFQGRVTMTRDTSTSTVYMELSSLRSEDTAVYYCARGLELHWFDPWGQGTLVTVSS
VL: DIQMTQSPSSLSASVGDRVTITCRASQNIRSWLAWYQQKPGKAPKLLIYAASSLQSGVPSRFSGSGSGTDFTLTISSLQPEDFATYYCQQANSFPYTFGQGTKLEIK
blocking ELISA signal normalized to isotype control (=1) [1]: 0.069 ratio to isotype control
EC50 of IFNγ release, human PBMC [2]: 3.47 nM
Fold change of IFNγ at 10 µg/ml vs baseline, human PBMC [2]: 8.86 fold
EC50 of IFNγ release, mouse splenocytes [3]: 2.93 nM
Fold change of IFNγ at 10 µg/ml vs baseline, mouse splenocytes [3]: 3.49 fold
ELISA binding ratio (fold-change over background) [6]: 36.3 fold over background
ELISA binding ratio (fold-change over background) [7]: 45.1 fold over background
Kd [11]: 3.2 nM
blocking ELISA signal normalized to isotype control (=1) [10]: 0.202 ratio to isotype control
